Measurements as given in patent US6365350B1, “Method of DNA sequencing” (The Institute of Physical and Chemical Research, priority 1997, dated 2002).
Entries after “also recorded” stand apart in the source; their conditions may differ.

What was measured:
[1] = test system: DNA containing T7 promoter; details: in vitro, compared with wild type T7 RNA polymerase
Procedure: Subsequent steps for purification of enzyme should be performed at a temperature lower than room temperature, preferably 0-5° C. unless otherwise indicated. The E. coli cells were washed with 10 times relative to the cell weight of a washing buffer (20 mM Tris-HCl, pH 8.1, 130 mM NaCl, 2 mM EDTANa2 at 25° C.), centrifuged again (5,000×g, 4° C., 10 minutes), suspended in 10 times in volume of a sonication buffer [50 mM Tris-HCl, pH 8.1, 100 mM NaCl, 0.1 mM EDTANa2, 5 mM dithiothreitol (DTT), 0.1 mM benzamidine, 30 μg/ml phenylmethylsulfonyl fluoride (PMSF), 10 μg/ml bacitracin], and sonicated by using Sonifier 450 (Branson) at 80W for more than 15 minutes to destroy the cells and reduce the viscosity of the cells. Then, the cell suspension is centrifuged at 12,000×g and 4° C. for ten minutes to remove the cell debris. 10% streptomycin sulfate was slowly added dropwise to the resulting supernatant to a final concentration of 2.0% with stirring, and stirring was further continued for 30 minutes. The supernatant was centrifuged at 12,000×g and 4° C. for ten minutes to remove precipitates, and slowly added with ammonium sulfate powder with stirring to form precipitates. In this case, precipitates were first collected by 30% saturation of ammonium sulfate (30% ammonium sulfate precipitation), and the resulting supernatant was further added with ammonium sulfate to 60% saturation with stirring to form precipitates again (30-60% ammonium sulfate precipitation). The supernatant was added again with ammonium sulfate powder to 90% ammonium sulfate saturation, and stirred at 4° C. for 1 hour, and the precipitates were collected by centrifugation. […] The.30′60% ammonium sulfate fraction was suspended in a small amount of column buffer (20 mM KPO4, pH 7.7, 100 mM NaCl, 1 mM DTT, 30 μg/ml PMSF), and desalted by dialysis against 500 ml of the same buffer for 16hours. The dialysate was applied on a heparin-Sepharose column of 5 ml volume (Pharmacia Biotech). Subsequently, the column was washed with the same buffer until any material absorbing ultraviolet ray at 280 nm disappeared, and eluted with a linear gradient of 0.1 M to 0.64 M NaCl in the same buffer of about 40 times volume of the column volume. The eluent was collected in test tubes as fractions of a suitable volume, and immediately subjected to SDS-acrylamide gel electrophoresis for protein analysis to identify fractions containing proteins around a molecular weight considered to be of the objective T7 RNA polymerase. […] The fractions containing the protein were collected, and desalted by dialysis against about 1 liter of the column buffer (20 mM KPO4, pH 7.7, 100 mM NaCl, 1 mM DTT, 30 μg/ml PMSF) for 16 hours. The fractions desalted by dialysis were applied to a Q-Sepharose column (Pharmacia Biotech) of 5 ml volume that preliminarily equilibrated with the same buffer, and the column was washed with the same buffer until any material absorbing ultraviolet ray at 280 nm disappeared, and eluted with a linear gradient of 0.1 M to 0.64 M NaCl in the same buffer of about 40 times volume of the column volume. The eluent was collected in test tubes as fractions of a suitable volume, and immediately subjected to SDS-acrylamide gel electrophoresis for protein analysis to identify fractions containing proteins around a molecular weight considered to be of the objective T7 RNA polymerase. […] The fractions containing the protein were collected, dialyzed against 500 ml of storage buffer (50% glycerol, 20 mM KPO4, pH 7.7, 100 mM NaCl, 1 mM DTT, 30 μg/ml PMSF) for 16 hours, and stored at −20° C. until use. In vitro RNA synthesis activity and activity of the contaminated ribonuclease of this sample were examined.

[2] = test system: dye terminators; assay: Sequencing reaction utilizing mutant T7 RNA polymerase F644Y/L665P/F667Y (Example 8); format: biochemical; details: PCR product template, n=4 dye terminators, FIG. 41
[3] = test system: 3′-dATP, 3′-dGTP, 3′-dCTP, 3′-dUTP and derivatives thereof
Procedure: The T7 RNA polymerases introduced with mutations were purified, and their abilities of promoter sequence specific RNA synthesis and incorporation of ribonucleoside 5′-triphosphates including ATP, GTP, CTP, UTP and derivatives thereof, as well as 3′-DATP, 3′-dGTP, 3′-dCTP, 3′-dUTP and derivatives thereof were compared with those of wild type T7 RNA polymerase.
For two kinds of reaction mixture (with or without 3′-DATP, final concentration was 100 μM), the reaction was performed at 37° C. for 60 minutes. The whole reaction mixture was spotted on DE81 paper (Whatman), washed three times with phosphate buffer, and dried. The DE81 paper was placed into a scintillation vial, and radioactivity was measured using a scintillation counter (Beckman) for each reaction. Degree of inhibition of the [α-^32P]UTP incorporation was calculated by comparing the values obtained with and without 3′-dATP based on the measured radioactivity.

[4] = test system: 3′-dATP; assay: Inhibition of [α-32P]UTP incorporation by 3′-dATP in transcription reaction (relative activity for 3′-dATP); format: biochemical

B1: F644Y/L665P/F667Y: mutant T7 RNA polymerase introduced with F644Y/L665P/F667Y mutations (protein)
chain: MNTINIAKNDFSDIELAAIPFNTLADHYGERLAREQLALEHESYEMGEARFRKMFERQLKAGEVADNAAAKPLITTLLPKMIARINDWFEEVKAKRGKRPTAFQFLQEIKPEAVAYITIKTTLACLTSADNTTVQAVASAIGRAIEDEARFGRIRDLEAKHFKKNVEEQLNKRVGHVYKKAFMQVVEADMLSKGLLGGEAWSSWHKEDSIHVGVRCIEMLIESTGMVSLHRQNAGVVGQDSETIELAPEYAEAIATRAGALAGISPMFQPCVVPPKPWTGITGGGYWANGRRPLALVRTHSKKALMRYEDVYMPEVYKAINIAQNTAWKINKKVLAVANVITKWKHCPVEDIPAIEREELPMKPEDIDMNPEALTAWKRAAAAVYRKDKARKSRRISLEFMLEQANKFANHKAIWFPYNMDWRGRVYAVSMFNPQGNDMTKGLLTLAKGKPIGKEGYYWLKIHGANCAGVDKVPFPERIKFIEENHENIMACAKSPLENTWWAEQDSPFCFLAFCFEYAGVQHHGLSYNCSLPLAFDGSCSGIQHFSAMLRDEVGGRAVNLLPSETVQDIYGIVAKKVNEILQADAINGTDNEVVTVTDENTGEISEKVKLGTKALAGQWLAYGVTRSVTKRSVMTLAYGSKEYGFRQQVLEDTIQPAIDSGKGPMYTQPNQAAGYMAKLIWESVSVTVVAAVEAMNWLKSAAKLLAAEVKDKKTGEILRKRCAVHWVTPDGFPVWQEYKKPIQTRLNLMFLGQFRLQPTINTNKDSEIDAHKQESGIAPNFVHSQDGSHLRKTVVWAHEKYGIESFALIHDSFGTIPADAANLFKAVRETMVDTYESCDVLADFYDQFADQLHESQLDKMPALPAKGNLNLRDILESDFAFA
RNA synthesis activity [1]: maintained sufficient RNA synthesis activity | incorporation rate of dye terminators (electrogram) [2]: improvement of incorporation rate of dye terminators | bias of incorporation observed in the wild type [3]: markedly reduced | ability for incorporating 3′-dATP, 3′-dGTP, 3′-dCTP, 3′-dUTP and derivatives thereof ([3]; compared with wild type T7 RNA polymerase): marked improvement; also recorded: the highest; also recorded: markedly improved ability | bias for the 3′-dATP incorporation ([4]; among the mutant enzymes prepared): the least bias | more likely to incorporate 3′-dATP in comparison with the wild type enzyme ([4]; from Table 1): 5.58 times | Relative activity of RNA polymerase for 3′-dATP ([4]; relative value of inhibition degree of [α-32P]UTP incorporation by 100 μM 3′-dATP, wild type normalized to 1.000, 37° C., 60 minutes): 5.580
